According to article PMC10451225:
“And” between values parts separate entries of the source, which are not always exact repeats. Equal entries are not always repeated. Each block holds one substance with its values, some of them ahead of it.

Key:
[1] = target: SoxR Cys50Ser, Strep-tagged (Hyphomicrobium denitrificans); experiment: SEC; Superdex 75 Increase 10/300 GL, calibrated with mass standards; 50 mM Tris-HCl, pH 8.0, 150 mM NaCl; 0.8 mL/min; self-association of SoxR
[2] = target: T1, SoxR (Hyphomicrobium denitrificans) (UniProt D8JT35); experiment: EMSA; conditions: EMSA: 10 mM Tris-HCl pH 8.0, 50 mM KCl, 1 mM DTT, about 7% glycerol, 17 nM DNA, 15 ul; 20 min at room temperature, then 30 min at 30 C with DNA; 6% native gel …
T1 sequence: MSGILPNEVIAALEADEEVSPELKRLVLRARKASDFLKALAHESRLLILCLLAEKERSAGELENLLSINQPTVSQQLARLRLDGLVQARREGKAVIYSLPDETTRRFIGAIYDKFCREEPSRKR

[3] = target: SoxR Cys50Ser Cys116Ser, Strep-tagged (Hyphomicrobium denitrificans); experiment: SEC; Superdex 75 Increase 10/300 GL, calibrated with mass standards; 50 mM Tris-HCl, pH 8.0, 150 mM NaCl; 0.8 mL/min; self-association of SoxR
[4] = target: Hyphomicrobium denitrificans SoxR, Strep-tagged wild type (Hyphomicrobium denitrificans); experiment: as above
[5] = target: SoxR Cys116Ser, Strep-tagged (Hyphomicrobium denitrificans); experiment: as above

Substance: GGGTCACCAAATTCTGCAGGTCTCAATGCGAATGCGAGGCTGCTCCAGCTAGACGAAAAACAAGGAACGTTGCAATAGATAATTCACATATGATAATTTTCATATGTGTTATAGGATGAACGTTATCGCAGCTTCCGGGAGAGATGGCGTGAT (double strand) [soxA-soxY intergenic fragment, 151 bp]
binding [2]: binds

Substance: Hyphomicrobium denitrificans SoxR, Strep-tagged wild type (natural protein)
stoichiometry N [4]: 2 and 4

Substance: SoxR Cys116Ser, Strep-tagged (natural protein)
stoichiometry N [5]: 2 and 4

Second part, the substance after the results:

stoichiometry N [1]: 2 and 4
Substance: SoxR Cys50Ser, Strep-tagged (natural protein)

stoichiometry N [3]: 2 and 4
Substance: SoxR Cys50Ser Cys116Ser, Strep-tagged (natural protein)
